Test results as given in US20260069689A1 (Regeneron, published 2026).

Columns and labels:
[1] = molecular target: T1, SARS-COV-2 RBD extracellular domain expressed with a C-terminal mouse IgG2a Fc (SARS-CoV-2); assay: Biacore SPR, mAb captured on anti-hFc, 25 C
[2] = molecular target: T1, SARS-COV-2 RBD extracellular domain …; assay: Biacore SPR, mAb captured on anti-hFc, 37 C

| Binder | Kd [1] | koff [1] | kon [1] | t½ [1] | Kd [2] | koff [2] | kon [2] | t½ [2] |
| --- | --- | --- | --- | --- | --- | --- | --- | --- |
| mAb15170 (antibody, V domains shown) VH: EVQLVESGGGLVQPGGSLRLSCAATGITVSSNYMSWVRQAPGKGLEWVSLIYSGGSTFYADSVKGRFTISRHNSKNTLYLQMSSLRAEDTAVYYCARDLVDFGMDVWGQGTTVTVSS VL: DIQLTQSPSSLSASVGDRVTITCRASQGISNYLAWYQQKPGKAPKLLIYAASTLQSGVPSRFSGSGSGTDFTLTISSLQPEDFGTYYCQQLNSDSPTFGQGTKVEIKR | ≤ 29.5 pM | ≤ 1e-05 s⁻¹ | 339000 M⁻¹ s⁻¹ | 1160 min | 0.091 nM | 2.41e-05 s⁻¹ | 260000 M⁻¹ s⁻¹ | 480 min |
| mAb15151 (antibody, V domains shown) VH: QVQLVESGGGVVQPGRSLRLSCAASGFVFNSYGMHWVRQAPGKGLEWVAVLWYEGSKNYYADSVKGRFTISRDNSKNTLYLQMNSLRAEDTAVYYCARHGSGSFFGYYLDYWGQGTLVTVSS VL: DIQMTQSPSSLSASVGDRVTITCRASHNINDFLNWYQQKPGKAPRLLIYAASSLQSGVPSRFSGSGSGTDFTLTISSLQPEDFATYYCQESYTTPPTFGQGTKLEIKR | 3.38 pM | 3.12e-05 s⁻¹ | 9.24e+06 M⁻¹ s⁻¹ | 370 min | 0.85 nM | 0.0031 s⁻¹ | 3.7e+06 M⁻¹ s⁻¹ | 3.7 min |
